Measurements published in publication PMC9482650, “Quantitative fragmentomics allow affinity mapping of interactomes” (Nature Communications, 2022).
Residue numbers refer to the chain shown, from its start.

T1: APBA1_2, Q02410
T1 sequence (Q02410 742-832, limits assumed, looked up): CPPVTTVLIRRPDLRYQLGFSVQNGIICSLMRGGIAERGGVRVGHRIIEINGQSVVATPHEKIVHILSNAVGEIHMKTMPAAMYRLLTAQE

T2: APBA2_2, Q99767
T2 sequence (Q99767 654-744, limits assumed, looked up): T1 sequence (Q02410 742-832, limits assumed, looked up) with R10K, R15K, P59A, H65Q, I66A, A70S, Y84F, A89G

T3: ARHGAP21, Q5T5U3
T3 sequence (Q5T5U3 45-169, limits assumed, looked up): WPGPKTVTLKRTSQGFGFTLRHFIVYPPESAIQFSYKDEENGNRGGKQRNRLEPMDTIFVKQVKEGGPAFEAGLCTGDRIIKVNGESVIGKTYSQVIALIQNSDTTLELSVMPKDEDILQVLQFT

T4: GRIP1_4, Q9Y3R0
T4 sequence (Q9Y3R0 467-571, limits assumed, looked up): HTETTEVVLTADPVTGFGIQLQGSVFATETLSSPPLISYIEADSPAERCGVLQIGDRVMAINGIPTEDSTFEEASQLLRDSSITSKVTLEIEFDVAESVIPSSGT

T5: MPP2, Q14168
T5 sequence (Q14168 180-250, limits assumed, looked up): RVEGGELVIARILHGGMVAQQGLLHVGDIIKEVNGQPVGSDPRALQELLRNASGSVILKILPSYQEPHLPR

T6: MPP6, Q9NZW5
T6 sequence (Q9NZW5 125-219, limits assumed, looked up): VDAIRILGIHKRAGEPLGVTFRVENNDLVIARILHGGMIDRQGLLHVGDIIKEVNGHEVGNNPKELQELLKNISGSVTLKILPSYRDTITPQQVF

T7: NHERF3_3, Q5T2W1
T7 sequence (Q5T2W1 238-333, limits assumed, looked up): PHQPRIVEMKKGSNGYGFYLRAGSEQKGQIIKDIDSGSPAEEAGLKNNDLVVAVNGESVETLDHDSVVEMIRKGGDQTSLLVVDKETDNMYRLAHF

T8: PCLO, Q9Y6V0
T8 sequence (Q9Y6V0 4491-4600, limits assumed, looked up): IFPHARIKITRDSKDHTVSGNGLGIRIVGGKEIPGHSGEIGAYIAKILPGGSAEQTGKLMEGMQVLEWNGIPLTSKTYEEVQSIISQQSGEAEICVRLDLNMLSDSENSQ

T9: SNTA1, Q13424
T9 sequence (Q13424 82-180, limits assumed, looked up): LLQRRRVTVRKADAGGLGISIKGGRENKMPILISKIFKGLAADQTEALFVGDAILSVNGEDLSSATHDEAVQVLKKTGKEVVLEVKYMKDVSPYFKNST

B1: SCN4A, P35499 (peptide)
chain: VRPGVKESLV
B2: ADAM17, P78536 (peptide)
chain: NRVDSKETEC

The binders below were run against T1, APBA1_2, Q02410 (assay: holdup assay). Conditions: plain residues with an end cap or a label only (N-terminal biotin on a linker: ado-ado).
Parameters: key: below the threshold = too weak to quantify, mostly under pKd 3.1 to 4
In the case of B1, the pKd is reported as “below the threshold”.
B2 was tested, and the pKd was “below the threshold”.

Each binder was assayed against T2, APBA2_2, Q99767 (assay: holdup assay). Conditions: plain residues with an end cap or a label only (N-terminal biotin on a linker: ado-ado).
Parameters: key: below the threshold = too weak to quantify, mostly under pKd 3.1 to 4
In the case of B1, the pKd is reported as “below the threshold”.
B2 was tested, and the pKd was “below the threshold”.

The binders below were run against T3, ARHGAP21, Q5T5U3 (assay: holdup assay). Conditions: plain residues with an end cap or a label only (N-terminal biotin on a linker: ado-ado).
Parameters: key: below the threshold = too weak to quantify, mostly under pKd 3.1 to 4
B1 was tested, and the pKd was “below the threshold”.
In the case of B2, the pKd is reported as “below the threshold”.

These binders were tested against ARHGEF12, Q9NZN5-2 (assay: holdup assay). Conditions: plain residues with an end cap or a label only (N-terminal biotin on a linker: ado-ado).
Sequence of ARHGEF12, Q9NZN5-2 (Q9NZN5 other isoform, or with tags, fused parts or gaps): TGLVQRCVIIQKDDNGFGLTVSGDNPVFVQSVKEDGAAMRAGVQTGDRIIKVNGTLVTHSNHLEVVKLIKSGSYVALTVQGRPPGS
Parameters: key: below the threshold = too weak to quantify, mostly under pKd 3.1 to 4
With B1 the pKd was “below the threshold”.
In the case of B2, the pKd is reported as 3.95.

These binders were tested against CASK, O14936 (assay: holdup assay). Conditions: plain residues with an end cap or a label only (N-terminal biotin on a linker: ado-ado).
Sequence of CASK, O14936 (O14936 487-570): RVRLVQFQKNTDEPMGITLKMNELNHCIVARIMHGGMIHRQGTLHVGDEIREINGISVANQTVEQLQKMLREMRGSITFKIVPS
Parameters: key: below the threshold = too weak to quantify, mostly under pKd 3.1 to 4
With B1 the pKd was “below the threshold”.
In the case of B2, the pKd is reported as “below the threshold”.

Each binder was assayed against DLG1_1, Q12959 (assay: holdup assay). Conditions: plain residues with an end cap or a label only (N-terminal biotin on a linker: ado-ado).
Parameters: key: below the threshold = too weak to quantify, mostly under pKd 3.1 to 4
B1 gave a pKd of 4.71.
B2 showed a pKd of 4.32.

The binders below were run against DLG2_2, Q15700 (assay: holdup assay). Conditions: plain residues with an end cap or a label only (N-terminal biotin on a linker: ado-ado).
Sequence of DLG2_2, Q15700 (Q15700 189-283): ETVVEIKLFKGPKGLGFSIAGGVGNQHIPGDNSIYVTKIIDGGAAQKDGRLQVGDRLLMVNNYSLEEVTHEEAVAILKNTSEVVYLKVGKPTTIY
Parameters: key: below the threshold = too weak to quantify, mostly under pKd 3.1 to 4
B1 gave a pKd of 5.23.
B2 gave a pKd of 4.25.

What follows are binders tested against DLG4_1, P78352 (assay: holdup assay). Conditions: plain residues with an end cap or a label only (N-terminal biotin on a linker: ado-ado).
Sequence of DLG4_1, P78352 (P78352 62-152): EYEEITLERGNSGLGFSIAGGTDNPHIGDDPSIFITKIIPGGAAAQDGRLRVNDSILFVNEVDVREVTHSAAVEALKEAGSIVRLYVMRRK
Parameters: key: below the threshold = too weak to quantify, mostly under pKd 3.1 to 4
Binder B1 has a pKd of 4.98.
B2 showed a pKd of 4.32.

These binders were tested against FRMPD2_1, Q68DX3 (assay: holdup assay). Conditions: plain residues with an end cap or a label only (N-terminal biotin on a linker: ado-ado).
Sequence of FRMPD2_1, Q68DX3 (Q68DX3 770-861): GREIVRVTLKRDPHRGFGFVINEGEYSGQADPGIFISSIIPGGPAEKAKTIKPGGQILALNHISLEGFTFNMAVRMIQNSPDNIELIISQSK
Parameters: key: below the threshold = too weak to quantify, mostly under pKd 3.1 to 4
For B1, the pKd was “below the threshold”.
For B2, the pKd was “below the threshold”.

Each binder was assayed against FRMPD4, Q14CM0 (assay: holdup assay). Conditions: plain residues with an end cap or a label only (N-terminal biotin on a linker: ado-ado).
Sequence of FRMPD4, Q14CM0 (Q14CM0 67-160): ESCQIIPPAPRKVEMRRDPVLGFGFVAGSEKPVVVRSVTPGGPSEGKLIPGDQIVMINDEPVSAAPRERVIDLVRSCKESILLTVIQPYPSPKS
Parameters: key: below the threshold = too weak to quantify, mostly under pKd 3.1 to 4
B1 was tested, and the pKd was “below the threshold”.
In the case of B2, the pKd is reported as “below the threshold”.

What follows are binders tested against GORASP2, Q9H8Y8 (assay: holdup assay). Conditions: plain residues with an end cap or a label only (N-terminal biotin on a linker: ado-ado).
Parameters: key: below the threshold = too weak to quantify, mostly under pKd 3.1 to 4
B1 was tested, and the pKd was “below the threshold”.
B2 was tested, and the pKd was “below the threshold”.

These binders were tested against GRID2IP_1, A4D2P6 (assay: holdup assay). Conditions: plain residues with an end cap or a label only (N-terminal biotin on a linker: ado-ado).
Sequence of GRID2IP_1, A4D2P6 (A4D2P6 1-87): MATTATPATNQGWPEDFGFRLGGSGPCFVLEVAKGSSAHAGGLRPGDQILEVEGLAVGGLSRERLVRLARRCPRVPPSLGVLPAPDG
Parameters: key: below the threshold = too weak to quantify, mostly under pKd 3.1 to 4
B1 was tested, and the pKd was “below the threshold”.
For B2, the pKd was “below the threshold”.

These binders were tested against T4, GRIP1_4, Q9Y3R0 (assay: holdup assay). Conditions: plain residues with an end cap or a label only (N-terminal biotin on a linker: ado-ado).
Parameters: key: below the threshold = too weak to quantify, mostly under pKd 3.1 to 4
With B1 the pKd was “below the threshold”.
B2 was tested, and the pKd was “below the threshold”.

These binders were tested against GRIP2_3, Q9C0E4 (assay: holdup assay). Conditions: plain residues with an end cap or a label only (N-terminal biotin on a linker: ado-ado).
Sequence of GRIP2_3, Q9C0E4 (Q9C0E4 238-339): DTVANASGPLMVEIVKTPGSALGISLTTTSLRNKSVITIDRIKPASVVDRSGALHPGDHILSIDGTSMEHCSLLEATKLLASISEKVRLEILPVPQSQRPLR
Parameters: key: below the threshold = too weak to quantify, mostly under pKd 3.1 to 4
With B1 the pKd was “below the threshold”.
With B2 the pKd was “below the threshold”.

What follows are binders tested against IL16_4, Q14005 (assay: holdup assay). Conditions: plain residues with an end cap or a label only (N-terminal biotin on a linker: ado-ado).
Sequence of IL16_4, Q14005 (Q14005 1229-1329): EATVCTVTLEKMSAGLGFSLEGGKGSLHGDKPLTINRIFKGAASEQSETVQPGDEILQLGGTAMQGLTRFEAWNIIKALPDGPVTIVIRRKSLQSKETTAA
Parameters: key: below the threshold = too weak to quantify, mostly under pKd 3.1 to 4
For B1, the pKd was “below the threshold”.
With B2 the pKd was 3.6.

Each binder was assayed against Inadl_2, Q8NI35 (assay: holdup assay). Conditions: plain residues with an end cap or a label only (N-terminal biotin on a linker: ado-ado).
Sequence of Inadl_2, Q8NI35 (Q8NI35 238-335): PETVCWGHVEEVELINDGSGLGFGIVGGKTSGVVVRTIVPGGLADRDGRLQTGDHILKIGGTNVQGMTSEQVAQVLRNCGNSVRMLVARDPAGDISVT
Parameters: key: below the threshold = too weak to quantify, mostly under pKd 3.1 to 4
In the case of B1, the pKd is reported as “below the threshold”.
In the case of B2, the pKd is reported as “below the threshold”.

The binders below were run against LIMK2, P53671 (assay: holdup assay). Conditions: plain residues with an end cap or a label only (N-terminal biotin on a linker: ado-ado).
Sequence of LIMK2, P53671 (P53671 143-248): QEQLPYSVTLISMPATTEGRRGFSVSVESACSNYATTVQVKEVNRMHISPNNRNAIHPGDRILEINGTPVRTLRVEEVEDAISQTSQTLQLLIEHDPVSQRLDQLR
Parameters: key: below the threshold = too weak to quantify, mostly under pKd 3.1 to 4
With B1 the pKd was “below the threshold”.
B2 gave a pKd of 3.48.

The binders below were run against MAGI2_4, Q86UL8 (assay: holdup assay). Conditions: plain residues with an end cap or a label only (N-terminal biotin on a linker: ado-ado).
Sequence of MAGI2_4, Q86UL8 (Q86UL8 772-865): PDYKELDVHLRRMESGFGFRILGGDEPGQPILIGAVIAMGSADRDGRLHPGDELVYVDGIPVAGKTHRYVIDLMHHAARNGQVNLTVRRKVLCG
Parameters: key: below the threshold = too weak to quantify, mostly under pKd 3.1 to 4
B1 was tested, and the pKd was 4.37.
B2 gave a pKd of 3.53.

These binders were tested against MAGI2_6, Q86UL8 (assay: holdup assay). Conditions: plain residues with an end cap or a label only (N-terminal biotin on a linker: ado-ado).
Sequence of MAGI2_6, Q86UL8 (Q86UL8 1141-1229): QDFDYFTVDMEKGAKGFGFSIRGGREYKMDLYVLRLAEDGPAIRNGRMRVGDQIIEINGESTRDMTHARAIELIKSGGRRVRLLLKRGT
Parameters: key: below the threshold = too weak to quantify, mostly under pKd 3.1 to 4
With B1 the pKd was 3.93.
For B2, the pKd was 4.06.

The binders below were run against MAGI3_2, Q5TCQ9 (assay: holdup assay). Conditions: plain residues with an end cap or a label only (N-terminal biotin on a linker: ado-ado).
Sequence of MAGI3_2, Q5TCQ9 (Q5TCQ9 398-503): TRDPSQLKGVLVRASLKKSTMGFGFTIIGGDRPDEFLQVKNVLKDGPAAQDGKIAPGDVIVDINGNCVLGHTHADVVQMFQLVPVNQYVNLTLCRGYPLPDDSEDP
Parameters: key: below the threshold = too weak to quantify, mostly under pKd 3.1 to 4
B1 was tested, and the pKd was 5.52.
In the case of B2, the pKd is reported as “below the threshold”.

These binders were tested against T5, MPP2, Q14168 (assay: holdup assay). Conditions: plain residues with an end cap or a label only (N-terminal biotin on a linker: ado-ado).
Parameters: key: below the threshold = too weak to quantify, mostly under pKd 3.1 to 4
In the case of B1, the pKd is reported as “below the threshold”.
For B2, the pKd was “below the threshold”.

The binders below were run against T6, MPP6, Q9NZW5 (assay: holdup assay). Conditions: plain residues with an end cap or a label only (N-terminal biotin on a linker: ado-ado).
Parameters: key: below the threshold = too weak to quantify, mostly under pKd 3.1 to 4
For B1, the pKd was 3.67.
With B2 the pKd was “below the threshold”.

These binders were tested against NHERF2_2, Q15599 (assay: holdup assay). Conditions: plain residues with an end cap or a label only (N-terminal biotin on a linker: ado-ado).
Sequence of NHERF2_2, Q15599 (Q15599 142-238): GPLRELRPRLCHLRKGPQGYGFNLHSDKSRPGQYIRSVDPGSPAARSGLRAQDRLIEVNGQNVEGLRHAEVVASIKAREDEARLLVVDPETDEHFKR
Parameters: key: below the threshold = too weak to quantify, mostly under pKd 3.1 to 4
In the case of B1, the pKd is reported as “below the threshold”.
B2 was tested, and the pKd was “below the threshold”.

What follows are binders tested against T7, NHERF3_3, Q5T2W1 (assay: holdup assay). Conditions: plain residues with an end cap or a label only (N-terminal biotin on a linker: ado-ado).
Parameters: key: below the threshold = too weak to quantify, mostly under pKd 3.1 to 4
For B1, the pKd was “below the threshold”.
B2 was tested, and the pKd was “below the threshold”.

Each binder was assayed against T8, PCLO, Q9Y6V0 (assay: holdup assay). Conditions: plain residues with an end cap or a label only (N-terminal biotin on a linker: ado-ado).
Parameters: key: below the threshold = too weak to quantify, mostly under pKd 3.1 to 4
With B1 the pKd was “below the threshold”.
With B2 the pKd was “below the threshold”.

These binders were tested against PDLIM1, O00151 (assay: holdup assay). Conditions: plain residues with an end cap or a label only (N-terminal biotin on a linker: ado-ado).
Sequence of PDLIM1, O00151 (O00151 1-87): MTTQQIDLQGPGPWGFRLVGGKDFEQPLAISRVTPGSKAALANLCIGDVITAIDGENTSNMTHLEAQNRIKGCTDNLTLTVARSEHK
Parameters: key: below the threshold = too weak to quantify, mostly under pKd 3.1 to 4
With B1 the pKd was “below the threshold”.
With B2 the pKd was “below the threshold”.

What follows are binders tested against T9, SNTA1, Q13424 (assay: holdup assay). Conditions: plain residues with an end cap or a label only (N-terminal biotin on a linker: ado-ado).
Parameters: key: below the threshold = too weak to quantify, mostly under pKd 3.1 to 4
Binder B1 has a pKd of 4.76.
For B2, the pKd was 4.7.

Each binder was assayed against TJP2_1, Q9UDY2 (assay: holdup assay). Conditions: plain residues with an end cap or a label only (N-terminal biotin on a linker: ado-ado).
Sequence of TJP2_1, Q9UDY2 (Q9UDY2 24-128): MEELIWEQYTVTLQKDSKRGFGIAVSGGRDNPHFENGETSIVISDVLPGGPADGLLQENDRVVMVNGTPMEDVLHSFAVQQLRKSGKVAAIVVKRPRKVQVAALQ
Parameters: key: below the threshold = too weak to quantify, mostly under pKd 3.1 to 4
In the case of B1, the pKd is reported as “below the threshold”.
B2 was tested, and the pKd was “below the threshold”.
